{"source": "paper PMC13562413", "about": "“FoxO transcription factors coordinate the urea cycle and gluconeogenesis by controlling Ass1”", "target": "GST-FoxO1-DBD (Mus musculus, UniProt Q9R1E0 157-268)", "sequence (Q9R1E0 157-268)": "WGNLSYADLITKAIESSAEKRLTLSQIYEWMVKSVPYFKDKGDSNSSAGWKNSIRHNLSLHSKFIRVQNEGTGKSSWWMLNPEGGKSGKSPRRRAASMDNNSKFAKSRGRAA", "assay": "EMSA; 10 mM HEPES pH 7.8, 50 mM KCl, 1 mM EDTA, 5 mM MgCl2, 10% glycerol, 5 mM DTT, 0.4 ug/mL poly(dI-dC), 30 min on ice; 4.6% PAGE in TBE", "conditions": "protein: recombinant; tags: N-terminal GST (pGEX-4T1); label: 32P (alpha-32P dCTP, Klenow fill-in); blunt after fill-in of 5' overhangs"}
{"binder": "Ass1 FoxO BS1 mut (dsDNA) DNA 1: GTGTACCCAAGGACACATCTACTTTCTTTCTGATTTTGGATCCTTTGTTGGGTG DNA 2: CACCCAACAAAGGATCCAAAATCAGAAAGAAAGTAGATGTGTCCTTGGGTACAC", "values": [{"measurement": "binding result", "result": "no binding"}]}
